Results taken from patent publication US20220332804A1 (CSL INNOVATION, published 2022).

How the values were obtained:
Assay in all cases: SPR, mAb captured, C2 mutant analyte;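 also: Anti-C2 mAbs captured on goat anti-human IgG Biacore CM5 chips, alanine or serine C2 surface mutants flowed over at 37 °C, double-referenced sensorgrams fitted to a 1:1 binding model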
human C2 E267A = target: T1, human C2 E267A (human, UniProt P06681 21-752)
T1 sequence: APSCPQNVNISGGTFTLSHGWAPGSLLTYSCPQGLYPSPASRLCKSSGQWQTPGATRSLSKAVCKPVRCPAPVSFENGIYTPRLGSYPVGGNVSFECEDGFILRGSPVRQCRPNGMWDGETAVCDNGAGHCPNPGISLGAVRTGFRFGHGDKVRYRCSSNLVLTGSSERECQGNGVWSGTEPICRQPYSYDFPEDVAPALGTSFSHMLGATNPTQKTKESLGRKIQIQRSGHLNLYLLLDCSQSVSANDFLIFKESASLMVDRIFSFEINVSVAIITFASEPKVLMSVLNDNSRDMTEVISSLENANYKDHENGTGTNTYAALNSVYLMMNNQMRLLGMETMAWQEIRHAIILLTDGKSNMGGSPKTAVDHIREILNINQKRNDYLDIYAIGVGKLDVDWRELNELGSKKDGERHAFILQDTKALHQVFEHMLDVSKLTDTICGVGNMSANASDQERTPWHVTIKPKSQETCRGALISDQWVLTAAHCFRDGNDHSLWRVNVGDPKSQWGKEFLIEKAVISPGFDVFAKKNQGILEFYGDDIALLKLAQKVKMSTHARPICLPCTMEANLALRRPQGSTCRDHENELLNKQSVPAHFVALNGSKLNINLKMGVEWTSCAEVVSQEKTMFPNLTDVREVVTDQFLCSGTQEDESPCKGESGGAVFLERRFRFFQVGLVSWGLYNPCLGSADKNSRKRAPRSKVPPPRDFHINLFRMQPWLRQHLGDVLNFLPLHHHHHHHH
Procedure: (§1) Surface plasmon resonance (SPR, Biacore) was used for all binding affinity analyses. In brief, goat anti-human IgG was directly immobilised onto the carboxymethyl dextran surface of CM5 sensorchips to approximately 12,000 RU using standard NHS/EDC chemistry at pH 5. The immobilised antibody surface was pre-conditioned with ten injections of polyclonal human IgG (Privigen 60 s) prepared at 1 μg/mL. Ligands (anti-C2 mAbs) were captured at the beginning of each cycle as described below. An adjacent spot or flow cell in which only Polyclonal IgG was capture was used as a reference surface. The goat anti-human IgG Fc antibody surface was regenerate in 100 mM H3PO4, injected for 45 seconds at the end of each cycle. Experiments were performed at 37° C. and the flow rate of each experiment was kept constant at 30 μL/min.
(§2) Sensogram data was double-referenced against a reference anti-IgG surface (i.e. minus anti-C2 mAb) and blank buffer injections obtained within each experiment. The binding data was fit to 1:1 (kinetic or steady-state) model using local Rmax and null refraction index (RI=0) when appropriate. Buffers and solutions were filtered (0.22 μm) prior to use.

human C2 H451A = target: T2, human C2 H451A (human, UniProt P06681 21-752)
T2 sequence: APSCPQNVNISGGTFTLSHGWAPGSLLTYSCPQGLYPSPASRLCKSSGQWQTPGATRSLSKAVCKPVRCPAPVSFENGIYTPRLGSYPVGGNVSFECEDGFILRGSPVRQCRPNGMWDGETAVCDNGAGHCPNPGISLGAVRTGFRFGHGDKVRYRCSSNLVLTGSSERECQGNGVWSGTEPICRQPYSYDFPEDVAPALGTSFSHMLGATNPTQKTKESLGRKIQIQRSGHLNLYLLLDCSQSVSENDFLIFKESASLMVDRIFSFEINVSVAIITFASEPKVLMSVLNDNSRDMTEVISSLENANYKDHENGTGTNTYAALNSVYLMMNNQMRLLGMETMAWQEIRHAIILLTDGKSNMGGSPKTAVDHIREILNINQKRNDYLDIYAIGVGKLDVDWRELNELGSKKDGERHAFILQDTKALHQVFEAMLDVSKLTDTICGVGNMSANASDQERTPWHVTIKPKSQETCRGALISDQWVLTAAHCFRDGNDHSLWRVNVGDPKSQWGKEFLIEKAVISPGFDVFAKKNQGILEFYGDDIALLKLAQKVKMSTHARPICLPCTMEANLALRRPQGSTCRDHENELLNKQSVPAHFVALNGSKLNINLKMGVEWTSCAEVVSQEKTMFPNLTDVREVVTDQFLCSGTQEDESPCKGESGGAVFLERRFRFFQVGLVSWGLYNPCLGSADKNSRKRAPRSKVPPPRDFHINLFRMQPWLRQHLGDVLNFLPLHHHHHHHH
Procedure: as §1, §2

human C2 L439A = target: T3, human C2 L439A (human, UniProt P06681 21-752)
T3 sequence: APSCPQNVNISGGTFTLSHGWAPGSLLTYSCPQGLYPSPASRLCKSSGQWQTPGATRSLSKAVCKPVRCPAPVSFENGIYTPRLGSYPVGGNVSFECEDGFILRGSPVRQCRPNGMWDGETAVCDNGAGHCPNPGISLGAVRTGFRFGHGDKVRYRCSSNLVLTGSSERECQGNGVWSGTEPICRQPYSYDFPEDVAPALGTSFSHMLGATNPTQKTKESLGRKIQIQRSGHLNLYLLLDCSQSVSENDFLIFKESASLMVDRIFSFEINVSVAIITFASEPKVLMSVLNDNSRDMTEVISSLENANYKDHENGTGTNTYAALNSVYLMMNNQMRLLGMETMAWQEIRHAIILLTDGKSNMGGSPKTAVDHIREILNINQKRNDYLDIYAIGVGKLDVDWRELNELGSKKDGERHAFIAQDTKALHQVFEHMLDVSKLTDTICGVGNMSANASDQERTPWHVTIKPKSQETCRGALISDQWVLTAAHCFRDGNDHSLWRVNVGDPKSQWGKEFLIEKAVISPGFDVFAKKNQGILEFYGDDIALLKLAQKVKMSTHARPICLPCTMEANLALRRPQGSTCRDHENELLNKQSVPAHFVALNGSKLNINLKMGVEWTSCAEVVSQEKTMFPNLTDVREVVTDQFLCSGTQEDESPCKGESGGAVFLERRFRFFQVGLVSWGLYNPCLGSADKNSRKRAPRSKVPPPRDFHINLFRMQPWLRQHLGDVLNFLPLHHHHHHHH
Procedure: as §1, §2

human C2 N403A = target: T4, human C2 N403A (human, UniProt P06681 21-752)
T4 sequence: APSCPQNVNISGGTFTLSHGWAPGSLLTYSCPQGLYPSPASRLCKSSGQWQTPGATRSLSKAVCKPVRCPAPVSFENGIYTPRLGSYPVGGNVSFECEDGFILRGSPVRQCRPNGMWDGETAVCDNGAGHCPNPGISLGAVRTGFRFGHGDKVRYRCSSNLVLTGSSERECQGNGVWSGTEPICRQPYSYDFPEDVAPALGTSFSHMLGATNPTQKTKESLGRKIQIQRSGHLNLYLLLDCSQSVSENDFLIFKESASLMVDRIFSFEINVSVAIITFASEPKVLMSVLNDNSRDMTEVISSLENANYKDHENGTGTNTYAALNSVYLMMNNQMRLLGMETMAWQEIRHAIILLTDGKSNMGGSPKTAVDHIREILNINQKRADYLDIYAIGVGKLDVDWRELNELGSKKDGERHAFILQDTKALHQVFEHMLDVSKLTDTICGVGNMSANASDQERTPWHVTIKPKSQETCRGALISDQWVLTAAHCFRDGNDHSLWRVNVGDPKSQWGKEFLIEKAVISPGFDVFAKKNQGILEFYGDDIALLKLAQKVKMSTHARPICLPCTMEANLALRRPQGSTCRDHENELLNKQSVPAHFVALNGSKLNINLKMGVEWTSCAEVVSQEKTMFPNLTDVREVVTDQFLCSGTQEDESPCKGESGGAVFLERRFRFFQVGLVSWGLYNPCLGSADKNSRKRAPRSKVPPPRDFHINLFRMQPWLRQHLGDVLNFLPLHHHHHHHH
Procedure: as §1, §2

B1: RF16-214 (antibody, V domains shown)
VH: EVQLLESGGGLVQPGGSLRLSCAASGFTFSWYQMMWVRQAPGKGLEWVSRIYPSGGGTAYADSVKGRFTISRDNSKNTLYLQMNSLRAEDTAVYYCARDAGYGDNWGQGTLVTVSS
VL: QSALTQPPSVSVSPGQTASITCSGDKLGEKYASWYQQKAGQSPVMVIYQDRKRPSGIPERFSGSNSGNTATLTISGTQAMDEADYYCQAWDTRAVVFGGGTKLTVLG
Kd (human C2 E267A): 26.2 nM
Kd (human C2 H451A): 138 nM
Kd (human C2 L439A): 1320 nM
Kd (human C2 N403A): 29.6 nM
